Measurements: article PMC6435701

What was measured:
[1] = molecular target: ATAD3A K135E (Flag-tagged); assay: non-reducing western blot of ATAD3A dimer (with or without β-ME), densitometry; settings: HEK293 cells transfected for 48 h; at least 6 independent experiments; parent: est. 1.0; read off a plot
Myc-tagged ATAD3A = assay: co-immunoprecipitation (IP anti-Flag, WB anti-Myc), densitometry; settings: HEK293 cells transfected for 48 h; five independent experiments; parent: est. 1.0; read off a plot
[2] = molecular target: ATAD3A K135Q (Flag-tagged); assay: non-reducing western blot of ATAD3A dimer (with or without β-ME), densitometry; settings: HEK293 cells transfected for 48 h; at least 6 independent experiments; parent: est. 1.0; read off a plot

Row | ratio to parent [1] | ratio to parent (Myc-tagged ATAD3A) | ratio to parent [2] | Substance
1 | 2.3 | 1.6 |  | ATAD3A-Flag wildtype (in HEK293 cells) K135E
2 |  | 0.58 | 0.8 | ATAD3A-Flag wildtype (in HEK293 cells) K135Q
